# Reference: patent publication US20080138349A1
# Key:
# [1] = target: FcγRIIB (CD32B), soluble dimeric Fc fusion (human) (UniProt P31994); experiment: Biacore SPR
# [2] = target: FcγRIIIA 158F (CD16A F158), soluble monomer (human) (UniProt P08637); experiment: Biacore SPR
# [3] = target: FcγRIIIA 158V (CD16A V158), soluble monomer (human) (UniProt P08637); experiment: Biacore SPR
# [4] = target: FcγRIIIA 158F (CD16A F158), soluble monomer (human) (UniProt P08637); experiment: Biacore SPR; value on CD16A over value on CD32B
# [5] = target: FcγRIIIA 158V (CD16A V158), soluble monomer (human) (UniProt P08637); experiment: Biacore SPR; value on CD16A over value on CD32B
# [6] = target: FcγRIIIA (UniProt P08637); experiment: ELISA
# FcγRIIIA, sequence (P08637 17-208 limits assumed): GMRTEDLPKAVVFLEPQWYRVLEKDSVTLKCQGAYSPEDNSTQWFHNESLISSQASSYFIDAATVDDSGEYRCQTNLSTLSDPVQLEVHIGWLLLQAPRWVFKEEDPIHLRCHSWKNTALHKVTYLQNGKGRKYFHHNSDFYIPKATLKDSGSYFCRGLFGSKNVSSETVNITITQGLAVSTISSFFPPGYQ
# FcγRIIB (CD32B), soluble dimeric Fc fusion (human), sequence (P31994 43-217): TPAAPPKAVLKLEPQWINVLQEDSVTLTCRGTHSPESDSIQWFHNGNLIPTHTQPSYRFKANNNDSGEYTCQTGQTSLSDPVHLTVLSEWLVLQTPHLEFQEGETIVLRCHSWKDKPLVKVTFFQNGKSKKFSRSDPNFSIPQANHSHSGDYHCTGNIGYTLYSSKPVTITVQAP
# FcγRIIIA 158V (CD16A V158), soluble monomer (human), sequence (P08637 17-208 F176V): as the sequence (P08637 17-208 limits assumed) above, with F160V counted along it
# FcγRIIIA 158F (CD16A F158), soluble monomer (human), sequence (P08637 17-208): as the sequence (P08637 17-208 limits assumed) above
substance,measurement,setting,value
Immunoglobulin with variant Fc region D270E (antibody),Koff WT/Koff mutant,[1],0.39
same,Koff WT/Koff mutant,[2],1.48
same,Koff WT/Koff mutant,[3],1.25
same,Ratio of Affinities CD16A F158/CD32B,[4],3.79
same,Ratio of Affinities CD16A V158/CD32B,[5],3.21
Immunoglobulin with variant Fc region G316D R416G D270E (antibody),Koff WT/Koff mutant,[1],0.78
same,Koff WT/Koff mutant,[2],2.49
same,Koff WT/Koff mutant,[3],2.18
same,Ratio of Affinities CD16A F158/CD32B,[4],3.19
same,Ratio of Affinities CD16A V158/CD32B,[5],2.79
Immunoglobulin with variant Fc region G316D R416G D270E F243L (antibody),Koff WT/Koff mutant,[1],0.2
same,Koff WT/Koff mutant,[2],1.34
same,Koff WT/Koff mutant,[3],1.5
same,Ratio of Affinities CD16A F158/CD32B,[4],6.7
same,Ratio of Affinities CD16A V158/CD32B,[5],7.5
Immunoglobulin with variant Fc region G316D R416G D270E P396L (antibody),Koff WT/Koff mutant,[1],1.07
same,Koff WT/Koff mutant,[2],0.94
same,Koff WT/Koff mutant,[3],1.22
same,Ratio of Affinities CD16A F158/CD32B,[4],0.88
same,Ratio of Affinities CD16A V158/CD32B,[5],1.14
Immunoglobulin with variant Fc region K392T P396L (antibody),Koff WT/Koff mutant,[1],2.35
same,Koff WT/Koff mutant,[2],1.81
same,Koff WT/Koff mutant,[3],1.49
same,Ratio of Affinities CD16A F158/CD32B,[4],0.77
same,Ratio of Affinities CD16A V158/CD32B,[5],0.63
Immunoglobulin with variant Fc region K392T P396L D270E (antibody),Koff WT/Koff mutant,[1],0.79
same,Koff WT/Koff mutant,[2],2.28
same,Koff WT/Koff mutant,[3],1.81
same,Ratio of Affinities CD16A F158/CD32B,[4],2.89
same,Ratio of Affinities CD16A V158/CD32B,[5],2.29
Immunoglobulin with variant Fc region K392T P396L D270E F243L (antibody),Koff WT/Koff mutant,[1],0.44
same,Koff WT/Koff mutant,[2],2.44
same,Koff WT/Koff mutant,[3],3.16
same,Ratio of Affinities CD16A F158/CD32B,[4],5.55
same,Ratio of Affinities CD16A V158/CD32B,[5],7.18
Immunoglobulin with variant Fc region P247L N421K (antibody),Koff WT/Koff mutant,[2],1.73
same,Koff WT/Koff mutant,[3],1.29
Immunoglobulin with variant Fc region Q419H P396L D270E (antibody),Koff WT/Koff mutant,[1],0.68
same,Koff WT/Koff mutant,[3],1.64
Immunoglobulin with variant Fc region R292G (antibody),Koff WT/Koff mutant,[1],0.25
same,Koff WT/Koff mutant,[3],1.54
same,Ratio of Affinities CD16A V158/CD32B,[5],6.2
Immunoglobulin with variant Fc region R292P F243L (antibody),Ratio of Affinities CD16A V158/CD32B,[5],39.4
Immunoglobulin with variant Fc region R292P V305I (antibody),Ratio of Affinities CD16A V158/CD32B,[5],0.6
Immunoglobulin with variant Fc region R292P V305I F243L P396L Y300L (antibody),Koff WT/Koff mutant,[1],1.38
same,Koff WT/Koff mutant,[2],8.25
same,Koff WT/Koff mutant,[3],10.1
"ch4-4-20 A378V, N390I, V422I (from UniProt P01857 1-330) (antibody)",ELISA binding increase vs wt,[6],0.5 x
"ch4-4-20 D280E, S354F, A431D, L441I (from UniProt P01857 1-330) (antibody)",ELISA binding increase vs wt,[6],3 x
"ch4-4-20 D312E, K327N, I378S (from UniProt P01857 1-330) (antibody)",ELISA binding increase vs wt,[6],0.5 x
"ch4-4-20 D399E, M428L (from UniProt P01857 1-330) (antibody)",ELISA binding decrease vs wt,[6],0.5 x
ch4-4-20 D401V (from UniProt P01857 1-330) (antibody),ELISA binding increase vs wt,[6],0.5 x
"ch4-4-20 E216D, E345K, S375I (from UniProt P01857 1-330) (antibody)",ELISA binding increase vs wt,[6],0.5 x
"ch4-4-20 F243L, R255L, E318K (from UniProt P01857 1-330) (antibody)",ELISA binding increase vs wt,[6],1 x
"ch4-4-20 F275I, K334N, V348M (from UniProt P01857 1-330) (antibody)",ELISA binding increase vs wt,[6],0.5 x
ch4-4-20 F275Y (from UniProt P01857 1-330) (antibody),ELISA binding increase vs wt,[6],3 x
"ch4-4-20 G385E, P247H (from UniProt P01857 1-330) (antibody)",ELISA binding increase vs wt,[6],1 x
ch4-4-20 H224L (from UniProt P01857 1-330) (antibody),ELISA binding increase vs wt,[6],0.5 x
"ch4-4-20 H310Y, T289A, G337E (from UniProt P01857 1-330) (antibody)",ELISA binding increase vs wt,[6],0.5 x
ch4-4-20 I377N (from UniProt P01857 1-330) (antibody),ELISA binding decrease vs wt,[6],0.5 x
ch4-4-20 K222N (from UniProt P01857 1-330) (antibody),ELISA binding increase vs wt,[6],1 x
"ch4-4-20 K222N, T335N, K370E, A378V, T394M (from UniProt P01857 1-330) (antibody)",ELISA binding increase vs wt,[6],1 x
"ch4-4-20 K246R, S298N, I377F (from UniProt P01857 1-330) (antibody)",ELISA binding increase vs wt,[6],1 x
"ch4-4-20 K246T, P396H (from UniProt P01857 1-330) (antibody)",ELISA binding increase vs wt,[6],1 x
"ch4-4-20 K246T, Y319F (from UniProt P01857 1-330) (antibody)",ELISA binding increase vs wt,[6],1 x
"ch4-4-20 K288N, K326N (from UniProt P01857 1-330) (antibody)",ELISA binding increase vs wt,[6],1 x
"ch4-4-20 K320E, K326E (from UniProt P01857 1-330) (antibody)",ELISA binding increase vs wt,[6],1 x
"ch4-4-20 K326E, G385E (from UniProt P01857 1-330) (antibody)",ELISA binding increase vs wt,[6],0.5 x
"ch4-4-20 K326I, P396L (from UniProt P01857 1-330) (antibody)",ELISA binding increase vs wt,[6],2.9 x
"ch4-4-20 K334E, T359N, T366S, Q386R (from UniProt P01857 1-330) (antibody)",ELISA binding increase vs wt,[6],1 x
ch4-4-20 K334I (from UniProt P01857 1-330) (antibody),ELISA binding increase vs wt,[6],1 x
ch4-4-20 K334N (from UniProt P01857 1-330) (antibody),ELISA binding increase vs wt,[6],0.5 x
"ch4-4-20 K370N, S440N (from UniProt P01857 1-330) (antibody)",ELISA binding increase vs wt,[6],1 x
"ch4-4-20 N315I, V379M, T394M (from UniProt P01857 1-330) (antibody)",ELISA IIIA binding vs wt,[6],1 X
same,ELISA binding increase vs wt,[6],1 x
"ch4-4-20 P227S, K290E (from UniProt P01857 1-330) (antibody)",ELISA binding increase vs wt,[6],1 x
ch4-4-20 P247L (from UniProt P01857 1-330) (antibody),ELISA binding increase vs wt,[6],0.5 x
"ch4-4-20 P247L, A431V, S442F (from UniProt P01857 1-330) (antibody)",ELISA binding vs wt,[6],1 x
"ch4-4-20 P247L, I253N, K334N (from UniProt P01857 1-330) (antibody)",ELISA binding increase vs wt,[6],3 x
"ch4-4-20 P247L, I377F (from UniProt P01857 1-330) (antibody)",ELISA binding increase vs wt,[6],1 x
"ch4-4-20 P291S, K288E, H268L, A141V (from UniProt P01857 1-330) (antibody)",ELISA binding decrease vs wt,[6],0.5 x
"ch4-4-20 P291S, P353Q (from UniProt P01857 1-330) (antibody)",ELISA binding decrease vs wt,[6],0.5 x
"ch4-4-20 P343S, P353L, S375I, S383N (from UniProt P01857 1-330) (antibody)",ELISA binding increase vs wt,[6],0.5 x
ch4-4-20 P396H (from UniProt P01857 1-330) (antibody),ELISA binding increase vs wt,[6],1 x
"ch4-4-20 Q347H, A339V (from UniProt P01857 1-330) (antibody)",ELISA binding increase vs wt,[6],0.5 x
"ch4-4-20 R301C, M252L, S192T (from UniProt P01857 1-330) (antibody)",ELISA binding decrease vs wt,[6],0.5 x
"ch4-4-20 R301H, K340E, D399E (from UniProt P01857 1-330) (antibody)",ELISA binding decrease vs wt,[6],0.5 x
ch4-4-20 S219Y (from UniProt P01857 1-330) (antibody),ELISA binding increase vs wt,[6],1 x
"ch4-4-20 S298N, S407R (from UniProt P01857 1-330) (antibody)",ELISA binding increase vs wt,[6],0.5 x
"ch4-4-20 S383N, N384K, T256N, V262L, K218E, R214I, K205E, F149Y, K133M (from UniProt P01857 1-330) (antibody)",ELISA binding increase vs wt,[6],0.5 x
ch4-4-20 S400P (from UniProt P01857 1-330) (antibody),ELISA binding increase vs wt,[6],1 x
ch4-4-20 S407I (from UniProt P01857 1-330) (antibody),ELISA binding increase vs wt,[6],0.5 x
"ch4-4-20 S408I, V215I, V125L (from UniProt P01857 1-330) (antibody)",ELISA binding increase vs wt,[6],0.5 x
"ch4-4-20 S415I, L251F (from UniProt P01857 1-330) (antibody)",ELISA binding increase vs wt,[6],0.5 x
"ch4-4-20 T335N, K370E, A378V, T394M, S424L (from UniProt P01857 1-330) (antibody)",ELISA binding increase vs wt,[6],0.5 x
"ch4-4-20 T394M, V397M (from UniProt P01857 1-330) (antibody)",ELISA binding increase vs wt,[6],0.5 x
"ch4-4-20 V279L, P395S (from UniProt P01857 1-330) (antibody)",ELISA binding increase vs wt,[6],1 x
"ch4-4-20 V282E, V369I, L406F (from UniProt P01857 1-330) (antibody)",ELISA binding increase vs wt,[6],0.5 x
ch4-4-20 V282M (from UniProt P01857 1-330) (antibody),ELISA binding increase vs wt,[6],1 x
"ch4-4-20 V284A, F372L (from UniProt P01857 1-330) (antibody)",ELISA binding vs wt,[6],1 x
